Assay results: the supplement of paper PMC9112550, “Optimization of the antimicrobial peptide Bac7 by deep mutational scanning” (BMC Biology, 2022)

System: Escherichia coli TOP10
Experiment: shrunken log2 fold change of peptide-encoding DNA abundance (4.5 h post-induction vs induction); higher = less antimicrobial activity (less host growth inhibition)
Details: time post-induction: 4.5 h; library: site-saturation at positions 5, 18, 19, 20
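Note: peptides expressed intracellularly from a pBAD plasmid library in pooled LB shake-flask culture, induced with 0.3% L-arabinose, DNA abundance read by NGS, three biological replicates, DESeq2 with apeglm shrinkage.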

Row | Sequence | shrunken log2 fold change
1 | RRIRCRPPRLPRPRPRPLCMPRP | -0.0162
2 | RRIRCRPPRLPRPRPRPLCTPRP | -0.088
3 | RRIRCRPPRLPRPRPRPLDRPRP | -0.478
4 | RRIRCRPPRLPRPRPRPLEPPRP | 0.0773
5 | RRIRCRPPRLPRPRPRPLGDPRP | 1.87
6 | RRIRCRPPRLPRPRPRPLGEPRP | 0.277
7 | RRIRCRPPRLPRPRPRPLGNPRP | -0.229
8 | RRIRCRPPRLPRPRPRPLISPRP | -0.3
9 | RRIRCRPPRLPRPRPRPLKTPRP | -0.0197
10 | RRIRCRPPRLPRPRPRPLLPPRP | -0.143
11 | RRIRCRPPRLPRPRPRPLPFPRP | -0.71
12 | RRIRCRPPRLPRPRPRPLPQPRP | 0.334
13 | RRIRCRPPRLPRPRPRPLQCPRP | -0.279
14 | RRIRCRPPRLPRPRPRPLQIPRP | -0.213
15 | RRIRCRPPRLPRPRPRPLQWPRP | -0.0609
16 | RRIRCRPPRLPRPRPRPLRIPRP | -0.0238
17 | RRIRCRPPRLPRPRPRPLRNPRP | 0.272
18 | RRIRCRPPRLPRPRPRPLSHPRP | -0.432
19 | RRIRCRPPRLPRPRPRPLSTPRP | -0.229
20 | RRIRCRPPRLPRPRPRPLTMPRP | -0.262
21 | RRIRCRPPRLPRPRPRPLTRPRP | 0.258
22 | RRIRCRPPRLPRPRPRPLTVPRP | -0.483
23 | RRIRCRPPRLPRPRPRPLVHPRP | -0.075
24 | RRIRCRPPRLPRPRPRPLWPPRP | 0.076
25 | RRIRCRPPRLPRPRPRPLYNPRP | -1.22

Row | Sequence | shrunken log2 fold change
26 | RRIRCRPPRLPRPRPRPMCNPRP | -0.378
27 | RRIRCRPPRLPRPRPRPMDQPRP | 0.337
28 | RRIRCRPPRLPRPRPRPMFMPRP | -0.246
29 | RRIRCRPPRLPRPRPRPMFRPRP | -0.179
30 | RRIRCRPPRLPRPRPRPMNYPRP | -0.226
31 | RRIRCRPPRLPRPRPRPMPCPRP | -0.688
32 | RRIRCRPPRLPRPRPRPMPWPRP | 0.0515
33 | RRIRCRPPRLPRPRPRPMQIPRP | 0.0467
34 | RRIRCRPPRLPRPRPRPMRAPRP | 0.919
35 | RRIRCRPPRLPRPRPRPMRDPRP | 0.281
36 | RRIRCRPPRLPRPRPRPMRGPRP | 1.05
37 | RRIRCRPPRLPRPRPRPMRYPRP | 0.0209
38 | RRIRCRPPRLPRPRPRPMSCPRP | -0.0327
39 | RRIRCRPPRLPRPRPRPMSPPRP | -0.0415
40 | RRIRCRPPRLPRPRPRPMSTPRP | -0.0888
41 | RRIRCRPPRLPRPRPRPMVYPRP | -0.187
42 | RRIRCRPPRLPRPRPRPMWNPRP | -0.195
43 | RRIRCRPPRLPRPRPRPMYVPRP | -0.766
44 | RRIRCRPPRLPRPRPRPNAYPRP | -0.502
45 | RRIRCRPPRLPRPRPRPNCRPRP | -0.00263
46 | RRIRCRPPRLPRPRPRPNCYPRP | -0.209
47 | RRIRCRPPRLPRPRPRPNEMPRP | -0.123
48 | RRIRCRPPRLPRPRPRPNESPRP | -0.00497
49 | RRIRCRPPRLPRPRPRPNFYPRP | -0.228
50 | RRIRCRPPRLPRPRPRPNHAPRP | -0.00846

Row | Sequence | shrunken log2 fold change
51 | RRIRCRPPRLPRPRPRPNIFPRP | -0.432
52 | RRIRCRPPRLPRPRPRPNIPPRP | -0.822
53 | RRIRCRPPRLPRPRPRPNIVPRP | -0.34
54 | RRIRCRPPRLPRPRPRPNKHPRP | -0.541
55 | RRIRCRPPRLPRPRPRPNMGPRP | -0.14
56 | RRIRCRPPRLPRPRPRPNNVPRP | -0.687
57 | RRIRCRPPRLPRPRPRPNPKPRP | 0.055
58 | RRIRCRPPRLPRPRPRPNSVPRP | -0.143
59 | RRIRCRPPRLPRPRPRPNTHPRP | -0.499
60 | RRIRCRPPRLPRPRPRPNTRPRP | -0.267
61 | RRIRCRPPRLPRPRPRPNVNPRP | -0.461
62 | RRIRCRPPRLPRPRPRPNWSPRP | -0.206
63 | RRIRCRPPRLPRPRPRPNWWPRP | 0.32
64 | RRIRCRPPRLPRPRPRPPAFPRP | 0.504
65 | RRIRCRPPRLPRPRPRPPAKPRP | 0.741
66 | RRIRCRPPRLPRPRPRPPALPRP | 0.415
67 | RRIRCRPPRLPRPRPRPPCYPRP | -0.265
68 | RRIRCRPPRLPRPRPRPPEKPRP | 0.299
69 | RRIRCRPPRLPRPRPRPPENPRP | 0.2
70 | RRIRCRPPRLPRPRPRPPFSPRP | 0.236
71 | RRIRCRPPRLPRPRPRPPGFPRP | 0.822
72 | RRIRCRPPRLPRPRPRPPGSPRP | 0.379
73 | RRIRCRPPRLPRPRPRPPGTPRP | 0.519
74 | RRIRCRPPRLPRPRPRPPHIPRP | 0.177
75 | RRIRCRPPRLPRPRPRPPKEPRP | 0.203

Row | Sequence | shrunken log2 fold change
76 | RRIRCRPPRLPRPRPRPPKSPRP | 0.772
77 | RRIRCRPPRLPRPRPRPPLGPRP | 0.807
78 | RRIRCRPPRLPRPRPRPPLLPRP | -0.0189
79 | RRIRCRPPRLPRPRPRPPLMPRP | 0.121
80 | RRIRCRPPRLPRPRPRPPLYPRP | 0.429
81 | RRIRCRPPRLPRPRPRPPMFPRP | -0.121
82 | RRIRCRPPRLPRPRPRPPMHPRP | 0.183
83 | RRIRCRPPRLPRPRPRPPMSPRP | -0.178
84 | RRIRCRPPRLPRPRPRPPNMPRP | -0.302
85 | RRIRCRPPRLPRPRPRPPNVPRP | 0.213
86 | RRIRCRPPRLPRPRPRPPPTPRP | 1.48
87 | RRIRCRPPRLPRPRPRPPQGPRP | 0.29
88 | RRIRCRPPRLPRPRPRPPQMPRP | 0.0913
89 | RRIRCRPPRLPRPRPRPPQVPRP | 0.204
90 | RRIRCRPPRLPRPRPRPPTEPRP | 1.77
91 | RRIRCRPPRLPRPRPRPPTHPRP | 0.172
92 | RRIRCRPPRLPRPRPRPPTSPRP | 0.428
93 | RRIRCRPPRLPRPRPRPPVWPRP | 0.129
94 | RRIRCRPPRLPRPRPRPPWEPRP | -0.0369
95 | RRIRCRPPRLPRPRPRPPWTPRP | 0.224
96 | RRIRCRPPRLPRPRPRPPYLPRP | -0.87
97 | RRIRCRPPRLPRPRPRPPYTPRP | -0.343
98 | RRIRCRPPRLPRPRPRPQCFPRP | -0.187
99 | RRIRCRPPRLPRPRPRPQDAPRP | 0.0575
100 | RRIRCRPPRLPRPRPRPQDHPRP | -0.226

Row | Sequence | shrunken log2 fold change
101 | RRIRCRPPRLPRPRPRPQEAPRP | 0.0141
102 | RRIRCRPPRLPRPRPRPQEFPRP | -0.366
103 | RRIRCRPPRLPRPRPRPQEYPRP | -0.399
104 | RRIRCRPPRLPRPRPRPQHCPRP | -0.287
105 | RRIRCRPPRLPRPRPRPQHFPRP | -0.0667
106 | RRIRCRPPRLPRPRPRPQKMPRP | -0.0362
107 | RRIRCRPPRLPRPRPRPQMHPRP | -0.27
108 | RRIRCRPPRLPRPRPRPQPKPRP | 0.273
109 | RRIRCRPPRLPRPRPRPQQLPRP | -0.054
110 | RRIRCRPPRLPRPRPRPQREPRP | -0.0986
111 | RRIRCRPPRLPRPRPRPQRIPRP | 0.0509
112 | RRIRCRPPRLPRPRPRPQTCPRP | 0.034
113 | RRIRCRPPRLPRPRPRPQTLPRP | -0.148
114 | RRIRCRPPRLPRPRPRPQWHPRP | 0.0206
115 | RRIRCRPPRLPRPRPRPQYKPRP | -0.991
116 | RRIRCRPPRLPRPRPRPRALPRP | 0.113
117 | RRIRCRPPRLPRPRPRPRATPRP | 0.509
118 | RRIRCRPPRLPRPRPRPRCPPRP | 0.418
119 | RRIRCRPPRLPRPRPRPREFPRP | 0.339
120 | RRIRCRPPRLPRPRPRPREWPRP | -0.0656
121 | RRIRCRPPRLPRPRPRPRFYPRP | -0.234
122 | RRIRCRPPRLPRPRPRPRGDPRP | 0.867
123 | RRIRCRPPRLPRPRPRPRGQPRP | -0.0954
124 | RRIRCRPPRLPRPRPRPRHQPRP | 0.18
125 | RRIRCRPPRLPRPRPRPRHYPRP | -0.393

Row | Sequence | shrunken log2 fold change
126 | RRIRCRPPRLPRPRPRPRKNPRP | -0.00471
127 | RRIRCRPPRLPRPRPRPRLLPRP | 0.159
128 | RRIRCRPPRLPRPRPRPRMMPRP | -0.11
129 | RRIRCRPPRLPRPRPRPRMQPRP | 0.349
130 | RRIRCRPPRLPRPRPRPRMYPRP | -0.562
131 | RRIRCRPPRLPRPRPRPRNIPRP | -0.33
132 | RRIRCRPPRLPRPRPRPRPCPRP | 0.339
133 | RRIRCRPPRLPRPRPRPRPEPRP | 0.44
134 | RRIRCRPPRLPRPRPRPRPWPRP | 0.432
135 | RRIRCRPPRLPRPRPRPRQKPRP | 0.466
136 | RRIRCRPPRLPRPRPRPRQMPRP | -0.136
137 | RRIRCRPPRLPRPRPRPRQQPRP | -0.245
138 | RRIRCRPPRLPRPRPRPRQWPRP | -0.108
139 | RRIRCRPPRLPRPRPRPRSVPRP | 0.318
140 | RRIRCRPPRLPRPRPRPRTEPRP | 0.0022
141 | RRIRCRPPRLPRPRPRPRVEPRP | 0.0473
142 | RRIRCRPPRLPRPRPRPSADPRP | 0.0289
143 | RRIRCRPPRLPRPRPRPSAGPRP | 0.194
144 | RRIRCRPPRLPRPRPRPSASPRP | 0.165
145 | RRIRCRPPRLPRPRPRPSCGPRP | -0.103
146 | RRIRCRPPRLPRPRPRPSCIPRP | -0.253
147 | RRIRCRPPRLPRPRPRPSCPPRP | -0.407
148 | RRIRCRPPRLPRPRPRPSCSPRP | -0.482
149 | RRIRCRPPRLPRPRPRPSDAPRP | -0.0145
150 | RRIRCRPPRLPRPRPRPSDHPRP | -0.714
